Measurements reported in patent US20180214569A1 (Regeneron, published 2018).

B1: H1H15377P (antibody, V domains shown)
VH: EVQLVESGGGLVQPGGSLRLSCAASGFTFTSYEMNWVRQAPGKGLEWISYISSGGDTKYYADSVRGRFTISRDNAKNSLYLQMNSLRAEDTALYYCARDVLNWVFDYWGRGTLVTVSS
VL: DIQMTQSPSSLSASVGDRVTITCRASQSIGKYLNWYRQSPGKAPKLLIYATSSLQSGVPSSFSGSGSGTDFTLTISSLQPEDFATYYCQQGFRTPFTFGPGTKVDIK
B2: H1H15378P (antibody, V domains shown)
VH: EVQLVESGGGLVQPGGSLRLSCAASGFTFNNYEMNWVRQAPGKGLEWVSFISSSGSTIDYAVSVKGRFTISRDNAKNSLYLQMNSLRPGDTAVYYCARARLDFYYYGMDVWGQGTTVTVSS
VL: DIQMTQSPSSLSASVGDRVTITCRASQGISNYLAWFQQKPGKAPKSLIYATSTLQSGVPSKFSGSGSGTDFTLTISSLQPEDFATYYCQQYNSFPLTFGGGTKVEIK
B3: H1H15379P (antibody, V domains shown)
VH: EVQLVESGGGLVQPGWSLRLSCAASGFTFDDYAMHWVRQAPGKGLEWVSGISWNSDDIDYTDSVKGRFTVSRDNAKNSLYLQMNSLRADDTAFYYCVRQRVRGYYYFGMDVWGQGTTVTVSS
VL: DIQMTQSPSSLSASVGDRVTITCRASQGISNYLAWFQQKPGKAPMSLIYAASSLQSGVPSKFSGSGSGTDFTLTISSLQPEDFATYYCQQYNSYPFTFGPGTKVDIK
B4: H1H15380P (antibody, V domains shown)
VH: QVQLQESGPGLVKPSETLSLMCTVSGGSINNYYWSWIRQPPGKGLEWIGYIYNGGITKYNPSLKSRVTISVDTSKSQISLKLNSVTAADTAFYYCTKEQLERREGHIWFDPWGQGTLVTVSS
VL: DIQMTQSPSSLSASVGDRVTITCRASQTINNYLNWYHQKPGKAPKLLIYGTSSLQSGVPSRFSGSGSGTEFALTISSLQPEDFATYYCQQSSSTPYTFGQGTKLEIK
B5: H1H15399P (antibody, V domains shown)
VH: EVQLVESGGGLVQPGGSLRLSCAASGFTFSSSAMSWVRQAPGKGLEWVSTLNVGADSTFYAGSVRGRFTISRDNSKNTLFLQMNSLRAEDTAVYYCAKDWGGIPYYYYYYGMDVWGQGTTVTVSS
VL: DIQLTQSPSFLSASVGDRVTITCWASQGISSYLAWYQQKPGKAPNLLIYTASTLQSGVPSRFSGSGSGTEFTLTISSLQPEDFATYYCQQLNSYPLTFGGGTKVEIK
B6: H1H15404P (antibody, V domains shown)
VH: QVQLQESGPGLVKPSETLSLTCTVSGGSISGYFWGWIRQTPGKGLEWIGYIFYSGSTHYNPSFKSRVTMSVDTSKNQFALKLRSVTAADTAKYYCSRQREYYGSGNYRYFGMDVWGQGTTVTVSS
VL: AIQMTQSPSSLSASVGERVTITCRASQDIRDDLGWYQQRPGKAPNLLIYAASSLHSGVPSRFSGSGSGTDFTLTISSLQPEDFATYYCLQDYNYPWTFGQGTKVEIK
B7: H1H15405P (antibody, V domains shown)
VH: EVQLVESGGGLVQPGGSLRLSCGASGFTFSYYWMTWVRQAPGKGLEWVANINQDGSEKFYVDSVRGRFTISRDNAKKSLYLQMNSLRAEDTAVYYCARDGYCSSIGCYNLYGMDVWGQGTTVTVSS
VL: DIQMTQSPSSLSASVGDRVTITCRASQNINKYLNWYQQKPGQAPKLLIYTTSSLQSGVPSRFSGSGSGTDFTLTISSLQPEDFATYSCQQSYNSPLTFGGGTKVEIK
B8: H1H15408P (antibody, V domains shown)
VH: EVQLVESGGGLVQPGGSLRLSCAASGFTFSRYDMSWVRQAPGKGLEWVSAISYSGDSTYYADSVQGRFTISRDNSKNTLYLQMNSLRAEDTALYHCAKDNGYSGTYYYYYGMDVWGQGTTVTVSS
VL: DIQMTQSPSSLSASVGDRVTITCRASQGISNYLAWFQQKPGKAPKFLIYAASSLQSGVPSKFSGSGSGTDFTLTISSLQPEDFATYYCQQYNSYPYTFGQGTKLEIK
B9: H1H15410P (antibody, V domains shown)
VH: QVQLQESGPGLVKPSETLSLTCTVSGGSISGYFWGWVRQPPGKGLEWIGYIFYSGSTNYNPSLKSRITLSVDTSKNQFSLKLSSVTAADTAIYYCARHREYYGSGNYRYYALDVWGQGTTVTVSS
VL: AIQMTQSPSSLSASVGDRVTITCRASQGIRDDLGWYQQKPGKAPKLLIYAASSLQSGVPSRFSGSGSGTDFTLTISSLQPEDFATYYCLQDYNFPLTFGQGTKVEIK
B10: H1H15414P (antibody, V domains shown)
VH: EVQLVESGGDLVQPGGSLRLSCAASGFTFSSFEMNWVRQAPGKGLEWVSYISSSGSTIYYADSVKDRFTVSRDKDKNSLYLQMNSLRAEDTAVYYCARGSWNQPYFDYWGQGTLVTVSS
VL: DIQMTQSPSTLSASVGDRVTITCRASQSISSWLAWYQLKPGKAPKVLIYKASSLESGVPSRFSGSGSGTEFTLTINSLQPDDFATYYCQQYNSWTFGQGTKVEIK
B11: H1H15375P (antibody, V domains shown)
VH: QVQLVESGGGGVQPGRSLRLSCEASGFTFSDYGMQWVRQAPGKGLEWVAVIWDDGRKKYYADSVKGRFTVSRDNSKNTLYLEINSLRVEDTAVYYCAREGSSSSGRYFLYGMDVWGQGTTVTVSS
VL: DIQMTQSPSSLSASVGDRVTITCRASQRISSYLNWYQQKLGKAPKLLISVASSLQSGVPSRFSGSGSGTDFTLTISSLQPEDFGIYYCQQSYNTPPWTFGQGTKVEIK
B12: H1H15418P2 (antibody, V domains shown)
VH: QVQLVESGGGLVRPGGSLRLSCEASGFTFNEHYMSWIRQAPGKGLEWVAFISSGGSIIYYADSVKGRFTISRDSAKNSLYLQMNSLRPEDTAIYYCAREPFGGIIVFDYWGQGTLVTVSS
VL: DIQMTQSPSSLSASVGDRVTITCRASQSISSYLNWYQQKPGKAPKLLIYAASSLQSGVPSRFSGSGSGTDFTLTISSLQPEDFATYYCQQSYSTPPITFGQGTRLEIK
B13: H1H15420P2 (antibody, V domains shown)
VH: QVQLQESGLGLVKPSETLSLTCTVSGDSIGTYYWSWIRQPPGKGLEWIAYIYDSRHSNSNPSLKSRVTTSVDMSKNQFSLQLKSVTAADTAVYFCARDWGTWKPEGAFDIWGQGTMVTVSS
VL: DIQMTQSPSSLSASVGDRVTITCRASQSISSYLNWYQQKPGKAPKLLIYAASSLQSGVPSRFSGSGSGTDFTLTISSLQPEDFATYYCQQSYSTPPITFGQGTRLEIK
B14: H1H15376P (antibody, V domains shown)
VH: QVQLQQSGPGLVKPSQTLSLTCAISGDSVASNNAAWNWIRQSPSRGLEWLGRTYYRSKWFNDYVESVKSRISFNPDTSKNQFSLQLNSVTPEDTAVYYCARSYYDFWSGYSENNYYFYGMDVWGQGTTVTVSS
VL: DIQMTQSPSSLSASVGDRVSITCRTSQGIRNDLGWYQQKPGKAPKRLIYAASSLQSGVPSRFSGSGSGTEFTLTISSLQPEDFATYYCLQHNIYPPTFGQGTKVEIK

Experiments:
Assay in all cases: ELISA, plate coated with toxin component
[1] = molecular target: T1, LukD (GS) (Staphylococcus aureus, UniProt O54082 27-327)
T1 sequence: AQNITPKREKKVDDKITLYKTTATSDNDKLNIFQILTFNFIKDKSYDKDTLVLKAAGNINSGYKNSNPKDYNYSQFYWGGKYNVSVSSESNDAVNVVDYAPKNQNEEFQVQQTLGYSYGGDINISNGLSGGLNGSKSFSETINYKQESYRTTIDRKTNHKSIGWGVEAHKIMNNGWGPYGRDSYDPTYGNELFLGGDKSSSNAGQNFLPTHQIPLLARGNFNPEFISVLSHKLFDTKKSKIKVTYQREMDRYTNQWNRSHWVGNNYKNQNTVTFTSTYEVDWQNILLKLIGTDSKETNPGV
Description: (§1) MaxiSorp microtiter plates were coated overnight with 10 μg/mL of individual F-components of S. aureus bicomponent toxins per well. Recombinant toxin components were either obtained from IBT BioServices (Gaithersburg, Md.) or generated by GenScript (Piscataway Township, N.J.). […] Wells were washed 3 times and then incubated with 100 ng/mL anti-human HRP secondary antibody per well for one hour at 25° C. 100 μL of SuperSignal ELISA Pico Chemiluminescent Substrate, (ThermoFisher Scientific) was added to the wells and signal was detected (Victor X3 plate reader, Perkin Elmer). Luminescence values were analyzed by a three-parameter logistic equation over an 11-point response curve (GraphPad Prism). Isotype-matched irrelevant control antibody and S. aureus delta toxin were included as controls.

[2] = molecular target: T2, HlgB (GS) (Staphylococcus aureus, UniProt P0A077 26-325)
T2 sequence: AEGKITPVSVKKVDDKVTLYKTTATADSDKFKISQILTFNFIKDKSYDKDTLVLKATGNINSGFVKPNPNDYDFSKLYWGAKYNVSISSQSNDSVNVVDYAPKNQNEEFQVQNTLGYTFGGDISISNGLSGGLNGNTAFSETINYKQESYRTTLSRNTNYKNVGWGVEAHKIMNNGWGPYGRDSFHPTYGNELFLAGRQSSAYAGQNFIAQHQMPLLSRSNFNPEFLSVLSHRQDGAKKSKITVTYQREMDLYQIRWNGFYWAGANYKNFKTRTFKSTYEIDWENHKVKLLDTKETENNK
Description: as §1

[3] = molecular target: S. aureus delta toxin (Staphylococcus aureus, UniProt P0C1V1 1-26)
Description: as §1

Binder	binding result [1]	binding result [2]	binding result [3]
B1	no binding (tested: titration 50 uM-100 pM)	no binding (tested: titration 50 uM-100 pM)	no binding (tested: titration 50 uM-100 pM)
B2	no binding (tested: titration 50 uM-100 pM)	no binding (tested: titration 50 uM-100 pM)	no binding (tested: titration 50 uM-100 pM)
B3	no binding (tested: titration 50 uM-100 pM)	no binding (tested: titration 50 uM-100 pM)	no binding (tested: titration 50 uM-100 pM)
B4	no binding (tested: titration 50 uM-100 pM)	no binding (tested: titration 50 uM-100 pM)	no binding (tested: titration 50 uM-100 pM)
B5	no binding (tested: titration 50 uM-100 pM)	no binding (tested: titration 50 uM-100 pM)	no binding (tested: titration 50 uM-100 pM)
B6	no binding (tested: titration 50 uM-100 pM)	no binding (tested: titration 50 uM-100 pM)	no binding (tested: titration 50 uM-100 pM)
B7	no binding (tested: titration 50 uM-100 pM)	no binding (tested: titration 50 uM-100 pM)	no binding (tested: titration 50 uM-100 pM)
B8	no binding (tested: titration 50 uM-100 pM)	no binding (tested: titration 50 uM-100 pM)	no binding (tested: titration 50 uM-100 pM)
B9	no binding (tested: titration 50 uM-100 pM)	no binding (tested: titration 50 uM-100 pM)	no binding (tested: titration 50 uM-100 pM)
B10	no binding (tested: titration 50 uM-100 pM)	no binding (tested: titration 50 uM-100 pM)	no binding (tested: titration 50 uM-100 pM)
B11	–	–	no binding (tested: titration 50 uM-100 pM)
B12	no binding (tested: titration 50 uM-100 pM)	no binding (tested: titration 50 uM-100 pM)	no binding (tested: titration 50 uM-100 pM)
B13	no binding (tested: titration 50 uM-100 pM)	no binding (tested: titration 50 uM-100 pM)	no binding (tested: titration 50 uM-100 pM)
B14	no binding (tested: titration 50 uM-100 pM)	no binding (tested: titration 50 uM-100 pM)	no binding (tested: titration 50 uM-100 pM)
